B1: GpH7-A5/GpH7-B3 variant L234_13S/GpL16-k0 (antibody, human IgG1, kappa)
heavy 1: not shown
heavy 2: not shown
light: DIVMTQSPLSLPVTPGEPASISCQASESLVHSNRNTYLHWYLQKPGQSPQLLIYKVSNRFSGVPDRFSGSGSGTDFTLKISRVEAEDVGVYYCSQNTHVPPTFGQGTKVEIERTVAAPSVFIFPPSDEQLKSGTASVVCLLNNFYPREAKVQWKVDNALQSGNSQESVTEQDSKDSTYSLSSTLTLSKADYEKHKVYACEVTHQGLSSPVTKSFNRGEC
notes: copies: 1 + 1 + 2
B2: GpH7-A5/GpH7-B3 variant L234_18N/GpL16-k0 (antibody, human IgG1, kappa)
heavy 1: not shown
heavy 2: not shown
light: DIVMTQSPLSLPVTPGEPASISCQASESLVHSNRNTYLHWYLQKPGQSPQLLIYKVSNRFSGVPDRFSGSGSGTDFTLKISRVEAEDVGVYYCSQNTHVPPTFGQGTKVEIERTVAAPSVFIFPPSDEQLKSGTASVVCLLNNFYPREAKVQWKVDNALQSGNSQESVTEQDSKDSTYSLSSTLTLSKADYEKHKVYACEVTHQGLSSPVTKSFNRGEC
notes: copies: 1 + 1 + 2
B3: GpH7-A5/GpH7-B3 variant L235_02A/GpL16-k0 (antibody, human IgG1, kappa)
heavy 1: not shown
heavy 2: not shown
light: DIVMTQSPLSLPVTPGEPASISCQASESLVHSNRNTYLHWYLQKPGQSPQLLIYKVSNRFSGVPDRFSGSGSGTDFTLKISRVEAEDVGVYYCSQNTHVPPTFGQGTKVEIERTVAAPSVFIFPPSDEQLKSGTASVVCLLNNFYPREAKVQWKVDNALQSGNSQESVTEQDSKDSTYSLSSTLTLSKADYEKHKVYACEVTHQGLSSPVTKSFNRGEC
notes: copies: 1 + 1 + 2
B4: GpH7-A5/GpH7-B3 variant L234_03V/GpL16-k0 (antibody, human IgG1, kappa)
heavy 1: not shown
heavy 2: not shown
light: DIVMTQSPLSLPVTPGEPASISCQASESLVHSNRNTYLHWYLQKPGQSPQLLIYKVSNRFSGVPDRFSGSGSGTDFTLKISRVEAEDVGVYYCSQNTHVPPTFGQGTKVEIERTVAAPSVFIFPPSDEQLKSGTASVVCLLNNFYPREAKVQWKVDNALQSGNSQESVTEQDSKDSTYSLSSTLTLSKADYEKHKVYACEVTHQGLSSPVTKSFNRGEC
notes: copies: 1 + 1 + 2
B5: GpH7-A5/GpH7-B3 variant L234_15Y/GpL16-k0 (antibody, human IgG1, kappa)
heavy 1: not shown
heavy 2: not shown
light: DIVMTQSPLSLPVTPGEPASISCQASESLVHSNRNTYLHWYLQKPGQSPQLLIYKVSNRFSGVPDRFSGSGSGTDFTLKISRVEAEDVGVYYCSQNTHVPPTFGQGTKVEIERTVAAPSVFIFPPSDEQLKSGTASVVCLLNNFYPREAKVQWKVDNALQSGNSQESVTEQDSKDSTYSLSSTLTLSKADYEKHKVYACEVTHQGLSSPVTKSFNRGEC
notes: copies: 1 + 1 + 2
B6: GpH7-A5/GpH7-B3 variant L235_04F/GpL16-k0 (antibody, human IgG1, kappa)
heavy 1: not shown
heavy 2: not shown
light: DIVMTQSPLSLPVTPGEPASISCQASESLVHSNRNTYLHWYLQKPGQSPQLLIYKVSNRFSGVPDRFSGSGSGTDFTLKISRVEAEDVGVYYCSQNTHVPPTFGQGTKVEIERTVAAPSVFIFPPSDEQLKSGTASVVCLLNNFYPREAKVQWKVDNALQSGNSQESVTEQDSKDSTYSLSSTLTLSKADYEKHKVYACEVTHQGLSSPVTKSFNRGEC
notes: copies: 1 + 1 + 2
B7: GpH7-A5/GpH7-B3 variant L235_05P/GpL16-k0 (antibody, human IgG1, kappa)
heavy 1: not shown
heavy 2: not shown
light: DIVMTQSPLSLPVTPGEPASISCQASESLVHSNRNTYLHWYLQKPGQSPQLLIYKVSNRFSGVPDRFSGSGSGTDFTLKISRVEAEDVGVYYCSQNTHVPPTFGQGTKVEIERTVAAPSVFIFPPSDEQLKSGTASVVCLLNNFYPREAKVQWKVDNALQSGNSQESVTEQDSKDSTYSLSSTLTLSKADYEKHKVYACEVTHQGLSSPVTKSFNRGEC
notes: copies: 1 + 1 + 2
B8: GpH7-A5/GpH7-B3 variant L234_02A/GpL16-k0 (antibody, human IgG1, kappa)
heavy 1: not shown
heavy 2: not shown
light: DIVMTQSPLSLPVTPGEPASISCQASESLVHSNRNTYLHWYLQKPGQSPQLLIYKVSNRFSGVPDRFSGSGSGTDFTLKISRVEAEDVGVYYCSQNTHVPPTFGQGTKVEIERTVAAPSVFIFPPSDEQLKSGTASVVCLLNNFYPREAKVQWKVDNALQSGNSQESVTEQDSKDSTYSLSSTLTLSKADYEKHKVYACEVTHQGLSSPVTKSFNRGEC
notes: copies: 1 + 1 + 2
B9: GpH7-A5/GpH7-B3 variant L234_06M/GpL16-k0 (antibody, human IgG1, kappa)
heavy 1: not shown
heavy 2: not shown
light: DIVMTQSPLSLPVTPGEPASISCQASESLVHSNRNTYLHWYLQKPGQSPQLLIYKVSNRFSGVPDRFSGSGSGTDFTLKISRVEAEDVGVYYCSQNTHVPPTFGQGTKVEIERTVAAPSVFIFPPSDEQLKSGTASVVCLLNNFYPREAKVQWKVDNALQSGNSQESVTEQDSKDSTYSLSSTLTLSKADYEKHKVYACEVTHQGLSSPVTKSFNRGEC
notes: copies: 1 + 1 + 2
B10: GpH7-A5/GpH7-B3 variant L234_20W/GpL16-k0 (antibody, human IgG1, kappa)
heavy 1: not shown
heavy 2: not shown
light: DIVMTQSPLSLPVTPGEPASISCQASESLVHSNRNTYLHWYLQKPGQSPQLLIYKVSNRFSGVPDRFSGSGSGTDFTLKISRVEAEDVGVYYCSQNTHVPPTFGQGTKVEIERTVAAPSVFIFPPSDEQLKSGTASVVCLLNNFYPREAKVQWKVDNALQSGNSQESVTEQDSKDSTYSLSSTLTLSKADYEKHKVYACEVTHQGLSSPVTKSFNRGEC
notes: copies: 1 + 1 + 2
B11: GpH7-A5/GpH7-B3 variant L234_07I/GpL16-k0 (antibody, human IgG1, kappa)
heavy 1: not shown
heavy 2: not shown
light: DIVMTQSPLSLPVTPGEPASISCQASESLVHSNRNTYLHWYLQKPGQSPQLLIYKVSNRFSGVPDRFSGSGSGTDFTLKISRVEAEDVGVYYCSQNTHVPPTFGQGTKVEIERTVAAPSVFIFPPSDEQLKSGTASVVCLLNNFYPREAKVQWKVDNALQSGNSQESVTEQDSKDSTYSLSSTLTLSKADYEKHKVYACEVTHQGLSSPVTKSFNRGEC
notes: copies: 1 + 1 + 2
B12: GpH7-A5/GpH7-B3 variant L234_16H/GpL16-k0 (antibody, human IgG1, kappa)
heavy 1: not shown
heavy 2: not shown
light: DIVMTQSPLSLPVTPGEPASISCQASESLVHSNRNTYLHWYLQKPGQSPQLLIYKVSNRFSGVPDRFSGSGSGTDFTLKISRVEAEDVGVYYCSQNTHVPPTFGQGTKVEIERTVAAPSVFIFPPSDEQLKSGTASVVCLLNNFYPREAKVQWKVDNALQSGNSQESVTEQDSKDSTYSLSSTLTLSKADYEKHKVYACEVTHQGLSSPVTKSFNRGEC
notes: copies: 1 + 1 + 2

The binders below were run against T1, FcγRIIIa (human, UniProt P08637 17-208) (assay: SPR (Biacore);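 further: antibody variants captured on an SPR sensor chip, with FcγRIIIa passed over as analyte in HBS-EP+ buffer at 25 °C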).
T1 construct: extracellular domain; also called 3a; FcγRIIIa extracellular domain
T1 sequence (P08637 other isoform, or with tags, fused parts or gaps): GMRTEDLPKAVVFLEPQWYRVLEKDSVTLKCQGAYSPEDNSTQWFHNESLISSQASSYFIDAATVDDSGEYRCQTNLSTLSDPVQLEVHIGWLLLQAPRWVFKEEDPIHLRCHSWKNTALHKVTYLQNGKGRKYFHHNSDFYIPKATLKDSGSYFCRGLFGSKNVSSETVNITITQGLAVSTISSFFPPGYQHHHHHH

Row | Binder | He/Con 3a
1 | B1 | 68.1 % of GpH7-A5/GpH7-B3/GpL16-k0
2 | B2 | 88.2 % of GpH7-A5/GpH7-B3/GpL16-k0
3 | B3 | 72 % of GpH7-A5/GpH7-B3/GpL16-k0
4 | B4 | 88.3 % of GpH7-A5/GpH7-B3/GpL16-k0
5 | B5 | 126 % of GpH7-A5/GpH7-B3/GpL16-k0
6 | B6 | 76.4 % of GpH7-A5/GpH7-B3/GpL16-k0
7 | B7 | 68.6 % of GpH7-A5/GpH7-B3/GpL16-k0
8 | B8 | 69.7 % of GpH7-A5/GpH7-B3/GpL16-k0
9 | B9 | 82.9 % of GpH7-A5/GpH7-B3/GpL16-k0
10 | B10 | 103 % of GpH7-A5/GpH7-B3/GpL16-k0
11 | B11 | 99.5 % of GpH7-A5/GpH7-B3/GpL16-k0
12 | B12 | 76.8 % of GpH7-A5/GpH7-B3/GpL16-k0

— patent publication US20260167699A1 (Chugai, published 2026)
